Measured values as given in article PMC2932838 (Biochemistry, 2010).
Where two headings read alike, the source gives them in different places.

Experiments:
[1] = target: T1, Human α2-antiplasmin, Asn-α2-AP form (human, UniProt P08697 40-491); assay: SPR
T1 sequence (looked up): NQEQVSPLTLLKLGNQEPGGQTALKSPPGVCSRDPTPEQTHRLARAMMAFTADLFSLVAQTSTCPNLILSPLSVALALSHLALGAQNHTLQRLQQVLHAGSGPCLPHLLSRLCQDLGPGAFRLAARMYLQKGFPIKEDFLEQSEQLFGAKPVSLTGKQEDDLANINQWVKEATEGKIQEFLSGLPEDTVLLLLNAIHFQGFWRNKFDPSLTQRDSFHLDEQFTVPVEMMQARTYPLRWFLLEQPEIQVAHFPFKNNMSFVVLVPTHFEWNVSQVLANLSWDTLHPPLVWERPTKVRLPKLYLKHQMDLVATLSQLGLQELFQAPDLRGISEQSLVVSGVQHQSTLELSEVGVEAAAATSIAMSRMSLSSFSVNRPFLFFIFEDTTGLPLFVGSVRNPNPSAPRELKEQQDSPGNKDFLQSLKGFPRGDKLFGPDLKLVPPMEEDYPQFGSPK

[2] = target: T2, Plasminogen-depleted human fibrinogen (human, UniProt P02671-2 36-644; P02675 45-491; P02679 27-453); assay: ELISA
[3] = target: Recombinant Aα392–610 fragment (human fibrinogen αC-domain) (human); assay: ELISA
[4] = target: Fibrin made from surface-adsorbed or chip-immobilized human fibrinogen by thrombin (most probably monomeric) (human) (UniProt P02679); assay: ELISA
[5] = target: Recombinant Aα504–610 fragment (C-terminal sub-domain of the αC-domain) (human); assay: ELISA
[6] = target: Recombinant Aα392–610 fragment (human fibrinogen αC-domain) (human); assay: ELISA; remark: listed apart in the source
[7] = target: Fibrin made from surface-adsorbed or chip-immobilized human fibrinogen by thrombin (most probably monomeric) (human) (UniProt P02679); assay: ELISA; remark: listed apart in the source
[8] = target: T2, Plasminogen-depleted human fibrinogen; assay: ELISA; remark: listed apart in the source
[9] = target: Recombinant Aα392–610 fragment (human fibrinogen αC-domain) (human); assay: ELISA; remark: listed apart in the source
[10] = target: Fibrin made from surface-adsorbed or chip-immobilized human fibrinogen by thrombin (most probably monomeric) (human) (UniProt P02679); assay: ELISA; remark: listed apart in the source
[11] = target: Recombinant Aα504–610 fragment (C-terminal sub-domain of the αC-domain) (human); assay: ELISA; remark: listed apart in the source
[12] = target: Fibrin made from surface-adsorbed or chip-immobilized human fibrinogen by thrombin (most probably monomeric) (human) (UniProt P02679); assay: ELISA; remark: listed apart in the source
[13] = target: Recombinant Aα221–610 fragment (human fibrinogen αC region) (human); assay: ELISA
[14] = target: Polymeric fibrin (cross-linked fibrin oligomers/polymers prepared on the sensor chip) (human) (UniProt P02679); assay: SPR
[15] = target: Polymeric fibrin (cross-linked fibrin oligomers/polymers prepared on the sensor chip) (human) (UniProt P02679); assay: SPR; remark: listed apart in the source
[16] = target: Fibrinogen D1 fragment (human); assay: ELISA
[17] = target: Fibrinogen D1 fragment (human); assay: ELISA; remark: listed apart in the source

B1: Fibrin-derived D-D:E complex (complex)
chain 1: VSEDLRSRIEVLKRKVIEKVQHIQLLQKNVRAQLVDMKRLEVDIDIKIRSCRGSCSRALAREVDLKDYEDQQKQLEQVIAKDLLPSR
chain 2: DNENVVNEYSSELEKHQLYIDETVNSNIPTNLRVLRSILENLRSKIQKLESDVSAQMEYCRTPCTVSCNIPVVSGKECEEIIRKGGETSEMYLIQPDSSVKPYRVYCDMNTENGGWTVIQNRQDGSVDFGRKWDPYKQGFGNVATNTDGKNYCGLPGEYWLGNDKISQLTRMGPTELLIEMEDWKGDKVKAHYGGFTVQNEANKYQISVNKYRGTAGNALMDGASQLMGENRTMTIHNGMFFSTYDRDNDGWLTSDPRKQCSKEDGGGWWYNRCHAANPNGRYYWGGQYTWDMAKHGTDDGVVWMNWKGSWYSMRKMSMKIRPFFPQQ
chain 3: KMLEEIMKYEASILTHDSSIRYLQEIYNSNNQKIVNLKEKVAQLEAQCQEPCKDTVQIHDITGKDCQDIANKGAKQSGLYFIKPLKANQQFLVYCEIDGSGNGWTVFQKRLDGSVDFKKNWIQYKEGFGHLSPTGTTEFWLGNEKIHLISTQSAIPYALRVELEDWNGRTSTADYAMFKVGPEADKYRLTYAYFAGGDAGDAFDGFDFGDDPSDKFFTSHNGMQFSTWDNDNDKFEGNCAEQDGSGWWMNKCHAGHLNGVYYQGGTYSKASTPNGYDNGIIWATWKTRWYSMKKTTMKIIPFNRLTIGEGQQHHLGGAK
chain 4: GPRVVERHQSACKDSDWPFCSDEDWNYKCPSGCRMKGLIDEVNQDFTNRINKLKNSLFEYQK
chain 5: GHRPLDKKREEAPSLRPAPPPISGGGYRARPAKAAATQKKVERKAPDAGGCLHADPDLGVLCPTGCQLQEALLQQERPIRNSVDELNNNVEAVSQTSSSSFQYMYLLK
chain 6: YVATRDNCCILDERFGSYCPTTCGIADFLSTYQTKVDKDLQSLEDILHQVENKTSEVKQLIK
modifications: covalent γ-γ cross-linking between the D regions
With B1 as the binder, how does the Kd [1] read?
Its Kd is 1400 ± 400 nM.

B2: Biotinylated human α2-antiplasmin (Asn-α2-AP form) (natural protein, UniProt P08697 40-491, looked up)
chain: NQEQVSPLTLLKLGNQEPGGQTALKSPPGVCSRDPTPEQTHRLARAMMAFTADLFSLVAQTSTCPNLILSPLSVALALSHLALGAQNHTLQRLQQVLHAGSGPCLPHLLSRLCQDLGPGAFRLAARMYLQKGFPIKEDFLEQSEQLFGAKPVSLTGKQEDDLANINQWVKEATEGKIQEFLSGLPEDTVLLLLNAIHFQGFWRNKFDPSLTQRDSFHLDEQFTVPVEMMQARTYPLRWFLLEQPEIQVAHFPFKNNMSFVVLVPTHFEWNVSQVLANLSWDTLHPPLVWERPTKVRLPKLYLKHQMDLVATLSQLGLQELFQAPDLRGISEQSLVVSGVQHQSTLELSEVGVEAAAATSIAMSRMSLSSFSVNRPFLFFIFEDTTGLPLFVGSVRNPNPSAPRELKEQQDSPGNKDFLQSLKGFPRGDKLFGPDLKLVPPMEEDYPQFGSPK
modifications: biotin (EZ-Link Sulfo-NHS-Biotinylation Kit), sites not stated
How did the Kd [2] turn out when B2 was run?
The Kd was 179 nM.

What about the Kd [3] of the same binder?
The Kd was 111 nM.

What about the Kd [4] of the same binder?
Its Kd is 25 nM.

What about the Kd [5] of the same binder?
The Kd was 130 nM.

What about the Kd [6] of the same binder?
The Kd was 141 nM.

And the Kd [7]?
The Kd was 101 nM.

What about the Kd [8] of the same binder?
The Kd was 102 nM.

What about the Kd [9] of the same binder?
The Kd was 157 nM.

What about the Kd [10] of the same binder?
Its Kd is 109 nM.

And the Kd [11]?
Its Kd is 123 nM.

What about the Kd [12] of the same binder?
The Kd was 102 nM.

What about the Kd [13] of the same binder?
Its Kd is 131 nM.

B3: Human α2-antiplasmin, Asn-α2-AP form (natural protein)
chain: NQEQVSPLTLLKLGNQEPGGQTALKSPPGVCSRDPTPEQTHRLARAMMAFTADLFSLVAQTSTCPNLILSPLSVALALSHLALGAQNHTLQRLQQVLHAGSGPCLPHLLSRLCQDLGPGAFRLAARMYLQKGFPIKEDFLEQSEQLFGAKPVSLTGKQEDDLANINQWVKEATEGKIQEFLSGLPEDTVLLLLNAIHFQGFWRNKFDPSLTQRDSFHLDEQFTVPVEMMQARTYPLRWFLLEQPEIQVAHFPFKNNMSFVVLVPTHFEWNVSQVLANLSWDTLHPPLVWERPTKVRLPKLYLKHQMDLVATLSQLGLQELFQAPDLRGISEQSLVVSGVQHQSTLELSEVGVEAAAATSIAMSRMSLSSFSVNRPFLFFIFEDTTGLPLFVGSVRNPNPSAPRELKEQQDSPGNKDFLQSLKGFPRGDKLFGPDLKLVPPMEEDYPQFGSPK
How did the Kd [14] turn out when B3 was run?
Its Kd is 68 nM.

What about the Kd [15] of the same binder?
Its Kd is 45 nM.

B4: Biotinylated human α2-antiplasmin (Asn-α2-AP form), P08697 40-491 (natural protein)
chain: NQEQVSPLTLLKLGNQEPGGQTALKSPPGVCSRDPTPEQTHRLARAMMAFTADLFSLVAQTSTCPNLILSPLSVALALSHLALGAQNHTLQRLQQVLHAGSGPCLPHLLSRLCQDLGPGAFRLAARMYLQKGFPIKEDFLEQSEQLFGAKPVSLTGKQEDDLANINQWVKEATEGKIQEFLSGLPEDTVLLLLNAIHFQGFWRNKFDPSLTQRDSFHLDEQFTVPVEMMQARTYPLRWFLLEQPEIQVAHFPFKNNMSFVVLVPTHFEWNVSQVLANLSWDTLHPPLVWERPTKVRLPKLYLKHQMDLVATLSQLGLQELFQAPDLRGISEQSLVVSGVQHQSTLELSEVGVEAAAATSIAMSRMSLSSFSVNRPFLFFIFEDTTGLPLFVGSVRNPNPSAPRELKEQQDSPGNKDFLQSLKGFPRGDKLFGPDLKLVPPMEEDYPQFGSPK
modifications: here or on the partner: biotin (EZ-Link Sulfo-NHS-Biotinylation Kit), sites not stated
How did the Kd [16] turn out when B4 was run?
Its Kd is 197 nM.

And the Kd [17]?
The Kd was 165 nM.
